Five molecules from publication PMC5014550, “Mitochondrial Bol1 and Bol3 function as assembly factors for specific iron-sulfur proteins” (eLife, 2016) can be followed below.

Sequences and labels used below:
B2: human GLRX5 (residues 32-157) with N-terminal His-tag (natural protein, UniProt Q86SX6 32-157, looked up)
chain: AGSGAGGGGSAEQLDALVKKDKVVVFLKGTPEQPQCGFSNAVVQILRLHGVRDYAAYNVLDDPELRQGIKDYSNWPTIPQVYLNGEFVGGCDILLQMHQNGDLVEELKKLGIHSALLDEKKDQDSK
notes: Chemically reconstituted with a [2Fe-2S] cluster (holo form, >85% holo); holo-GLRX5 alone eluted as a homodimer; also called holo-GLRX5; source: E. coli BL21 (DE3), pET-Duet1, purified (HisTrap HP, Superdex 200 gel filtration)

The target of series [1] is T1, human GLRX5, protein used for NMR (human, UniProt Q86SX6 32-157).
T1 construct: human mitochondrial monothiol glutaredoxin GLRX5; Used as apo form with 5 mM GSH, or chemically reconstituted with a [2Fe-2S] cluster; the assay's format says which; also called apo-GLRX5; holo-GLRX5; source: produced as previously reported (Banci et al., 2014)
T1 sequence (looked up): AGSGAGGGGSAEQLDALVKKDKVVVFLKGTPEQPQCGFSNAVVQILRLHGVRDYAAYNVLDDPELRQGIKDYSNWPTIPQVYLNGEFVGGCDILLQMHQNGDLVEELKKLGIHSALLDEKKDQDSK
Description: NMR titration; 1H-15N HSQC; 15N-labeled BOLA1 or BOLA3 titrated with unlabeled apo-GLRX5 and vice versa; 15N R1 and R2 relaxation on the final mixtures; degassed buffer N (50 mM phosphate pH 7, 5 mM GSH, 5 mM DTT), 10% D2O, 298 K. The following applies: both partners purified.

Series [2] deals with the molecule itself. Briefly: SEC; gel filtration in buffer R of holo-GLRX5 alone, co-reconstituted equimolar GLRX5-BOLA1 and holo-GLRX5-BOLA3, recorded at 420 nm and 280 nm; fractions analysed by Coomassie and immunostaining.
For series [3], the target named is T2, human NFU1 (residues 57-254) with N-terminal His-tag (human, UniProt Q9UMS0 57-254).
T2 chain: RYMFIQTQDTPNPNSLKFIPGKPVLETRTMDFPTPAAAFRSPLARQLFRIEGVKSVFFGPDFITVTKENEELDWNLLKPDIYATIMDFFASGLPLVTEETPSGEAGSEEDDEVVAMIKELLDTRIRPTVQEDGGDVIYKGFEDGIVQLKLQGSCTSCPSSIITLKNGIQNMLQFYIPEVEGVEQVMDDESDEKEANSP
Description: MST; apo-NFU1, anaerobic.

The target of series [4] is T3, human NFU1 (residues 57-254) with N-terminal His-tag (human, UniProt Q9UMS0 57-254).
T3 construct: Used as apo form or chemically reconstituted holo form carrying a [4Fe-4S] cluster; the assay's format says which; also called apo-NFU1; holo-NFU1; source: E. coli BL21 (DE3), pET-Duet1, purified (HisTrap HP, Superdex 200 gel filtration)
T3 sequence (looked up): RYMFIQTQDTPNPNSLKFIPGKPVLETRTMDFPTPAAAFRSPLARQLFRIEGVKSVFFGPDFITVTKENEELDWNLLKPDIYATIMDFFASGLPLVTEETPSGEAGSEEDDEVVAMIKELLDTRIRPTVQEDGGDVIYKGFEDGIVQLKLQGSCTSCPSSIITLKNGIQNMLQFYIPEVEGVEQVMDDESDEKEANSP
Description: MST; 200 nM NT-647-labeled BOLA1 or BOLA3, titrated with unlabeled apo-NFU1 (200 µM to 6.1 nM); buffer T (50 mM KPi pH 7.4, 150 mM NaCl, 5% glycerol, 0.05 mg/ml BSA, 0.05% Tween20), 21°C, anaerobic. The following applies: both partners purified.

For series [5], the target named is T3, human NFU1 (residues 57-254) with …. Description: MST; 200 nM NT-647-labeled BOLA1 or BOLA3, titrated with unlabeled chemically reconstituted holo-NFU1 carrying a [4Fe-4S] cluster (200 µM to 6.1 nM); buffer T, 21°C, anaerobic. The following applies: both partners purified.
Series [6] concerns the target T2, human NFU1 (residues 57-254) with …. Briefly: MST; holo-NFU1, anaerobic.
Series [7] deals with B2. Description: SEC; gel filtration in buffer R of holo-GLRX5 alone, co-reconstituted equimolar GLRX5-BOLA1 and holo-GLRX5-BOLA3, recorded at 420 nm and 280 nm; fractions analysed by Coomassie and immunostaining. The following applies: both partners purified. Background: Size exclusion chromatography separates by hydrodynamic size, large species first.

B1: human BOLA3 (residues 27-107), NMR construct (natural protein, UniProt Q53S33 27-107, looked up)
chain: ATQTEGELRVTQILKEKFPRATAIKVTDISGGCGAMYEIKIESEEFKEKRTVQQHQMVNQALKEEIKEMHGLRIFTSVPKR
notes: human BOLA3, residues 27-107, construct for NMR; 15N- or 13C,15N-labelled where observed by NMR; His-tag cleaved by tobacco etch virus protease; also called 15N-labeled BOLA3; source: E. coli BL21(DE3)GOLD, pET15 vector, purified; not shown: His-tag, N-terminal, cleaved
For orientation: stoichiometry N means the number of molecules, sites or subunits per partner or assembly. For the molecule B1, the “stoichiometry N” value in series [1] was 1.

B2: the “stoichiometry N” value in series [2] stood at 2.

B3: human BOLA3 (residues 25-107) with N-terminal His-tag (natural protein, UniProt Q53S33 25-107, looked up)
chain: MFATQTEGELRVTQILKEKFPRATAIKVTDISGGCGAMYEIKIESEEFKEKRTVQQHQMVNQALKEEIKEMHGLRIFTSVPKR
notes: Labelled with NT-647 dye in MST; source: E. coli BL21 (DE3), pET-Duet1, purified (HisTrap HP, Superdex 200 gel filtration)
Broadly, the Kd is the concentration at which binding is half-saturated. As to B3, the results for the dissociation constant Kd in series [3], in series [4] and in series [5] were 3570 nM, around 3000 nM and 800 nM, respectively.

B4: human BOLA1 (residues 30-137) with N-terminal His-tag (natural protein, UniProt Q9Y3E2 30-137, looked up)
chain: GPVEAAIRTKLEEALSPEVLELRNESGGHAVPPGSETHFRVAVVSSRFEGLSPLQRHRLVHAALAEELGGPVHALAIQARTPAQWRENSQLDTSPPCLGGNKKTLGTP
notes: as for B3
Take B4: the Kd was 2140 nM in series [6], 3590 nM in series [3] and around 3000 nM in series [4]. Also, the binding result in series [7] is given as “binds”.

B5: human BOLA1 (residues 21-137), NMR construct (natural protein, UniProt Q9Y3E2 21-137, looked up)
chain: QGSAGSGAIGPVEAAIRTKLEEALSPEVLELRNESGGHAVPPGSETHFRVAVVSSRFEGLSPLQRHRLVHAALAEELGGPVHALAIQARTPAQWRENSQLDTSPPCLGGNKKTLGTP
notes: human BOLA1, residues 21-137, construct for NMR; 15N- or 13C,15N-labelled where observed by NMR; His-tag cleaved by tobacco etch virus protease; also called 15N-labeled BOLA1; source: E. coli BL21(DE3)GOLD, pETG20A vector, purified; not shown: His-tag, N-terminal, cleaved
Take B5: the “stoichiometry N” value in series [1] worked out at 1.
